Consider one substance from publication doi:10.1101/2021.05.19.444834.

In test [1] the target is doubly dehydrated C62A ThfA (Thermobifida fusca). The experiment in a line: BLI. (Biolayer interferometry detects binding as a change in optical thickness at a sensor tip.)
For test [2], the target named is unmodified C62A ThfA (Thermobifida fusca). The experiment in a line: BLI.

By Kd is commonly meant the constant that tells how readily two partners part at equilibrium. A higher Kd goes with weaker binding. Consider “maltose binding protein (MBP) fusion to ThfB (enzyme)”, for which the Kd in test [1] came out at 18 nM; in test [2] it was 28 nM.
